One substance from publication PMC8532158 can be followed below.

What all share (assay): yeast surface display affinity sorting with deep sequencing (deep mutational scanning); BPTI single and double mutant library on yeast, sorted by FACS into four affinity gates (HI, WT, SL, LO) for each protease; NGS enrichments converted into ΔΔG_bind by a normalization formula fitted on ΔΔG_bind values of purified proteins
The target of experiment [1] is BPTI K15A displayed on the yeast surface (bovine).
The target in experiment [2] is BPTI K15R displayed on the yeast surface (bovine).
Experiment [3] addresses BPTI A16S displayed on the yeast surface (bovine).

Take bovine trypsin (enzyme): the ΔΔG bind against BPTI WT was 11.1 kcal/mol in experiment [1], -1.4 kcal/mol in experiment [2] and 4.5 kcal/mol in experiment [3].
